Molecular target: barnase (UniProt P00648)
Experiment: cell-based or functional assay

Sequence of UniProt P00648 (P00648 48-157 limits assumed): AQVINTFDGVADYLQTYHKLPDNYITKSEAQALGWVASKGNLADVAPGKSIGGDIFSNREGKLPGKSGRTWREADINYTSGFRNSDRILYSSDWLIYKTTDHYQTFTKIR

Substance barstar (from UniProt P11540 2-90) has a percent LUC positive shoots from barstar5 explants transformed with pBH700 (against 15% from wild type explants without barstar) of 46%.

— patent US6521458
